Test results from the Immune Epitope Database (IEDB).
One block for each sequence: values may come before it.

How the values were obtained:
HLA-A*01:01 = assay: IEDB peptide-MHC binding, purified MHC/competitive/fluorescence; ≥ and ≤ were set here for values at or beyond the usual limits of such assays; settings: source organism: Homo sapiens
HLA-A*02:01 [1] = assay: as above; settings: source organism: Homo sapiens
HLA-A*03:01 [2] = assay: as above; settings: source organism: Homo sapiens
HLA-A*11:01 = assay: as above; settings: source organism: Homo sapiens
HLA-A*24:02 = assay: as above; settings: source organism: Homo sapiens
HLA-A*25:01 = assay: as above; settings: source organism: Homo sapiens
HLA-A*29:02 [3] = assay: as above; settings: source organism: Homo sapiens
HLA-A*31:01 = assay: as above; settings: source organism: Homo sapiens
HLA-A*68:02 [4] = assay: as above; settings: source organism: Homo sapiens
HLA-B*07:02 = assay: as above; settings: source organism: Homo sapiens
HLA-B*08:01 = assay: as above; settings: source organism: Homo sapiens
HLA-B*14:02 = assay: as above; settings: source organism: Homo sapiens
HLA-B*18:01 [5] = assay: as above; settings: source organism: Homo sapiens
HLA-B*35:01 [6] = assay: as above; settings: source organism: Homo sapiens
HLA-B*37:01 = assay: as above; settings: source organism: Homo sapiens
HLA-B*40:02 = assay: as above; settings: source organism: Homo sapiens
HLA-B*44:03 = assay: as above; settings: source organism: Homo sapiens
HLA-B*51:01 [7] = assay: as above; settings: source organism: Homo sapiens
HLA-B*53:01 = assay: as above; settings: source organism: Homo sapiens
HLA-B*58:01 = assay: as above; settings: source organism: Homo sapiens
HLA-A*02:01 [8] = assay: IEDB peptide-MHC binding, cellular MHC/competitive/fluorescence; ≥ and ≤ were set here for values at or beyond the usual limits of such assays; settings: source organism: Measles morbillivirus
HLA-C*14:02 [9] = assay: IEDB peptide-MHC binding, purified MHC/direct/fluorescence; filed as Kd, often an IC50 or EC50 that approximates it; ≥ and ≤ were set here for values at or beyond the usual limits of such assays; settings: source organism: Homo sapiens
HLA-B*73:01 = assay: IEDB peptide-MHC binding, purified MHC/competitive/fluorescence; filed as Kd, often an IC50 or EC50 that approximates it; ≥ and ≤ were set here for values at or beyond the usual limits of such assays; settings: source organism: Vibrio cholerae V52
HLA-A*03:01 [10] = assay: IEDB peptide-MHC binding, purified MHC/direct/fluorescence; filed as Kd, often an IC50 or EC50 that approximates it; ≥ and ≤ were set here for values at or beyond the usual limits of such assays; settings: source organism: Coxiella burnetii Q321
HLA-A*26:01 [11] = assay: as above; settings: source organism: Coxiella burnetii Q321
HLA-A*29:02 [12] = assay: as above; settings: source organism: Coxiella burnetii Q321
HLA-A*69:01 [13] = assay: as above; settings: source organism: Coxiella burnetii Q321
HLA-B*18:01 [14] = assay: as above; settings: source organism: Coxiella burnetii Q321
HLA-B*57:01 [15] = assay: as above; settings: source organism: Coxiella burnetii Q321
HLA-C*07:02 = assay: as above; settings: source organism: Coxiella burnetii RSA 493
HLA-B*15:42 = assay: IEDB peptide-MHC binding, purified MHC/competitive/fluorescence; filed as Kd, often an IC50 or EC50 that approximates it; ≥ and ≤ were set here for values at or beyond the usual limits of such assays
HLA-B*27:20 = assay: as above
HLA-B*45:06 = assay: as above
HLA-B*83:01 = assay: as above
HLA-C*06:02 = assay: as above; settings: source organism: Coxiella burnetii RSA 493
HLA-C*14:02 [16] = assay: as above; settings: source organism: Coxiella burnetii RSA 493
HLA-C*08:02 = assay: IEDB peptide-MHC binding, purified MHC/direct/fluorescence; filed as Kd, often an IC50 or EC50 that approximates it; ≥ and ≤ were set here for values at or beyond the usual limits of such assays; settings: source organism: Burkholderia mallei SAVP1
HLA-A*02:01 [17] = assay: IEDB peptide-MHC binding, purified MHC/competitive/fluorescence; filed as Kd, often an IC50 or EC50 that approximates it; ≥ and ≤ were set here for values at or beyond the usual limits of such assays; settings: source organism: Burkholderia mallei SAVP1
HLA-A*02:11 = assay: as above; settings: source organism: Burkholderia mallei SAVP1
HLA-A*03:01 [18] = assay: as above; settings: source organism: Burkholderia mallei SAVP1
HLA-A*26:01 [19] = assay: as above; settings: source organism: Burkholderia mallei SAVP1
HLA-A*29:02 [20] = assay: as above; settings: source organism: Burkholderia mallei SAVP1
HLA-A*68:02 [21] = assay: as above; settings: source organism: Burkholderia mallei SAVP1
HLA-A*69:01 [22] = assay: as above; settings: source organism: Burkholderia mallei SAVP1
HLA-B*15:17 = assay: as above; settings: source organism: Burkholderia mallei SAVP1
HLA-B*18:01 [23] = assay: as above; settings: source organism: Burkholderia mallei SAVP1
HLA-B*27:03 = assay: as above; settings: source organism: Burkholderia mallei SAVP1
HLA-B*46:01 = assay: as above; settings: source organism: Burkholderia mallei SAVP1
HLA-B*51:01 [24] = assay: as above; settings: source organism: Burkholderia mallei SAVP1
HLA-B*57:01 [25] = assay: as above; settings: source organism: Burkholderia mallei SAVP1
HLA-B*35:01 [26] = assay: IEDB peptide-MHC binding, cellular MHC/competitive/fluorescence; ≥ and ≤ were set here for values at or beyond the usual limits of such assays; settings: source organism: Influenza A virus H3N2
HLA-C*04:01 = assay: IEDB peptide-MHC binding, purified MHC/competitive/fluorescence; filed as Kd, often an IC50 or EC50 that approximates it; ≥ and ≤ were set here for values at or beyond the usual limits of such assays; settings: source organism: Yersinia pestis CO92
[27] = source organism: Coxiella burnetii RSA 493
[28] = source organism: Yersinia pestis CO92

IC50 (HLA-A*01:01): ≥ 20 µM
IC50 (HLA-A*02:01 [1]): 4.97 µM
IC50 (HLA-A*03:01 [2]): ≥ 20 µM
IC50 (HLA-A*11:01): ≥ 20 µM
IC50 (HLA-A*24:02): ≥ 20 µM
IC50 (HLA-A*25:01): ≥ 20 µM
IC50 (HLA-A*29:02 [3]): ≥ 20 µM
IC50 (HLA-A*31:01): ≥ 20 µM
IC50 (HLA-A*68:02 [4]): 0.317 µM
IC50 (HLA-B*07:02): 1.46 µM
IC50 (HLA-B*08:01): ≥ 20 µM
IC50 (HLA-B*14:02): ≥ 20 µM
IC50 (HLA-B*18:01 [5]): 0.296 µM
IC50 (HLA-B*35:01 [6]): 0.737 µM
IC50 (HLA-B*37:01): ≥ 20 µM
IC50 (HLA-B*40:02): 0.54 µM
IC50 (HLA-B*44:03): ≥ 20 µM
IC50 (HLA-B*51:01 [7]): ≥ 20 µM
IC50 (HLA-B*53:01): ≥ 20 µM
IC50 (HLA-B*58:01): ≥ 20 µM
Sequence: YPDPVIKV

Sequence: QLPEATFMV
IC50 (HLA-A*02:01 [8]): 2 µM

IC50 (HLA-A*01:01): ≥ 20 µM
IC50 (HLA-A*02:01 [1]): 0.0208 µM
IC50 (HLA-A*03:01 [2]): ≥ 20 µM
IC50 (HLA-A*11:01): ≥ 20 µM
IC50 (HLA-A*24:02): 1.24 µM
IC50 (HLA-A*25:01): ≥ 20 µM
IC50 (HLA-A*29:02 [3]): 1.21 µM
IC50 (HLA-A*31:01): ≥ 20 µM
IC50 (HLA-A*68:02 [4]): 1.01 µM
IC50 (HLA-B*07:02): 2.51 µM
IC50 (HLA-B*08:01): ≥ 20 µM
IC50 (HLA-B*14:02): ≥ 20 µM
IC50 (HLA-B*18:01 [5]): ≥ 20 µM
IC50 (HLA-B*35:01 [6]): ≥ 20 µM
IC50 (HLA-B*37:01): ≥ 20 µM
IC50 (HLA-B*40:02): ≥ 20 µM
IC50 (HLA-B*44:03): ≥ 20 µM
IC50 (HLA-B*51:01 [7]): ≥ 20 µM
IC50 (HLA-B*53:01): ≥ 20 µM
IC50 (HLA-B*58:01): ≥ 20 µM
Kd (HLA-C*14:02 [9]): 1.12 µM
Sequence: SLMASSPTSI

Sequence: NRTQGGLRA
Kd (HLA-B*73:01): 0.136 µM

Sequence: YRATYSMAL
Kd (HLA-A*03:01 [10]): ≥ 20 µM
Kd (HLA-A*26:01 [11]): ≥ 20 µM
Kd (HLA-A*29:02 [12]): ≥ 20 µM
Kd (HLA-A*69:01 [13]): ≥ 20 µM
Kd (HLA-B*18:01 [14]): ≥ 20 µM
Kd (HLA-B*57:01 [15]): ≥ 20 µM
Kd (HLA-C*07:02): 0.08 µM
Kd (HLA-B*15:42; [27]): ≥ 5 µM
Kd (HLA-B*27:20; [27]): 0.0007 µM
Kd (HLA-B*45:06; [27]): ≥ 5 µM
Kd (HLA-B*83:01; [27]): ≥ 5 µM
Kd (HLA-C*06:02): 0.0061 µM
Kd (HLA-C*14:02 [16]): 0.119 µM

Sequence: RLDARLQVL
Kd (HLA-C*08:02): 0.082 µM
Kd (HLA-A*02:01 [17]): 0.0074 µM
Kd (HLA-A*02:11): 0.0011 µM
Kd (HLA-A*03:01 [18]): ≥ 20 µM
Kd (HLA-A*26:01 [19]): ≥ 20 µM
Kd (HLA-A*29:02 [20]): 1.02 µM
Kd (HLA-A*68:02 [21]): ≥ 20 µM
Kd (HLA-A*69:01 [22]): ≥ 20 µM
Kd (HLA-B*15:17): ≥ 20 µM
Kd (HLA-B*18:01 [23]): ≥ 20 µM
Kd (HLA-B*27:03): ≥ 20 µM
Kd (HLA-B*46:01): ≥ 20 µM
Kd (HLA-B*51:01 [24]): ≥ 20 µM
Kd (HLA-B*57:01 [25]): ≥ 20 µM

Sequence: LPFDKPTIM
IC50 (HLA-B*35:01 [26]): 1.6 µM

Sequence: FRDRGQHVL
Kd (HLA-B*15:42; [28]): ≥ 5 µM
Kd (HLA-B*27:20; [28]): 0.0004 µM
Kd (HLA-B*45:06; [28]): ≥ 5 µM
Kd (HLA-B*83:01; [28]): ≥ 5 µM
Kd (HLA-C*04:01): ≥ 5 µM
